According to patent US7658917 (PRAECIS PHARMACEUTICALS, dated 2010):
Numbered stars: 1 amine (or outer) side, 2 acyl side, 3 side chain; on linkers, the order of the positions; unused ones are H or OH. Square brackets hold non-standard residues; d marks the D form. Primed or numbered codes have the meaning given here. * marks the point of attachment. Aic′ = 3-(O-aminoethyl-iso)-cholyl, C[C@H](CCC(=O)*)[C@H]1CC[C@H]2[C@@H]3[C@H](O)C[C@@H]4C[C@@H](OCCN)CC[C@]4(C)[C@H]3C[C@H](O)[C@]12C; Cholyl = C[C@H](CCC(=O)*)[C@H]1CC[C@H]2[C@@H]3[C@H](O)C[C@@H]4C[C@H](O)CC[C@]4(C)[C@H]3C[C@H](O)[C@]12C; Adp = aminoethyldibenzofuranylpropanoic acid, O=C(CCc1cccc2c1oc1c(CCN[*:1])cccc12)[*:2]; Tyr(3-I) = N[C@@H](Cc1ccc(O)c(I)c1)C(=O)O; Aic″ = 3-(O-aminoethyl-iso)-cholyl; NANA = N-acetyl neuraminyl; βAla = NCCC(=O)O

B1: CA-AVFFA-oh (peptide)
peptide: Cholyl-AVFFA-OH
SMILES: CC(C)[C@H](NC(=O)[C@H](C)NC(=O)CC[C@@H](C)[C@H]1CC[C@H]2[C@@H]3[C@H](O)C[C@@H]4C[C@H](O)CC[C@]4(C)[C@H]3C[C@H](O)[C@]12C)C(=O)N[C@@H](Cc1ccccc1)C(=O)N[C@@H](Cc1ccccc1)C(=O)N[C@@H](C)C(=O)O
B2: h-(Aic)-LVFFA-oh (peptide)
peptide: H-[Aic′]LVFFA-OH
SMILES: CC(C)C[C@H](NC(=O)CC[C@@H](C)[C@H]1CC[C@H]2[C@@H]3[C@H](O)C[C@@H]4C[C@@H](OCCN)CC[C@]4(C)[C@H]3C[C@H](O)[C@]12C)C(=O)N[C@H](C(=O)N[C@@H](Cc1ccccc1)C(=O)N[C@@H](Cc1ccccc1)C(=O)N[C@@H](C)C(=O)O)C(C)C
B3: CA-KTVFF-oh (peptide)
peptide: Cholyl-KTVFF-OH
SMILES: CC(C)[C@H](NC(=O)[C@@H](NC(=O)[C@H](CCCCN)NC(=O)CC[C@@H](C)[C@H]1CC[C@H]2[C@@H]3[C@H](O)C[C@@H]4C[C@H](O)CC[C@]4(C)[C@H]3C[C@H](O)[C@]12C)[C@@H](C)O)C(=O)N[C@@H](Cc1ccccc1)C(=O)N[C@@H](Cc1ccccc1)C(=O)O
B4: CA-KLVFF(βA)-oh (peptide)
peptide: Cholyl-KLVFF[βAla]-OH
SMILES: CC(C)C[C@H](NC(=O)[C@H](CCCCN)NC(=O)CC[C@@H](C)[C@H]1CC[C@H]2[C@@H]3[C@H](O)C[C@@H]4C[C@H](O)CC[C@]4(C)[C@H]3C[C@H](O)[C@]12C)C(=O)N[C@H](C(=O)N[C@@H](Cc1ccccc1)C(=O)N[C@@H](Cc1ccccc1)C(=O)NCCC(=O)O)C(C)C
B5: CA-FFVLA-oh (peptide)
peptide: Cholyl-FFVLA-OH
SMILES: CC(C)C[C@H](NC(=O)[C@@H](NC(=O)[C@H](Cc1ccccc1)NC(=O)[C@H](Cc1ccccc1)NC(=O)CC[C@@H](C)[C@H]1CC[C@H]2[C@@H]3[C@H](O)C[C@@H]4C[C@H](O)CC[C@]4(C)[C@H]3C[C@H](O)[C@]12C)C(C)C)C(=O)N[C@@H](C)C(=O)O
B6: CA-FFA-oh (peptide)
peptide: Cholyl-Phe-Phe-Ala-OH
SMILES: C[C@H](NC(=O)[C@H](Cc1ccccc1)NC(=O)[C@H](Cc1ccccc1)NC(=O)CC[C@@H](C)[C@H]1CC[C@H]2[C@@H]3[C@H](O)C[C@@H]4C[C@H](O)CC[C@]4(C)[C@H]3C[C@H](O)[C@]12C)C(=O)O
B7: CA-LVAFA-oh (peptide)
peptide: Cholyl-LVAFA-OH
SMILES: CC(C)C[C@H](NC(=O)CC[C@@H](C)[C@H]1CC[C@H]2[C@@H]3[C@H](O)C[C@@H]4C[C@H](O)CC[C@]4(C)[C@H]3C[C@H](O)[C@]12C)C(=O)N[C@H](C(=O)N[C@@H](C)C(=O)N[C@@H](Cc1ccccc1)C(=O)N[C@@H](C)C(=O)O)C(C)C
B8: CA-FKFVL-oh (peptide)
peptide: Cholyl-FKFVL-OH
SMILES: CC(C)C[C@H](NC(=O)[C@@H](NC(=O)[C@H](Cc1ccccc1)NC(=O)[C@H](CCCCN)NC(=O)[C@H](Cc1ccccc1)NC(=O)CC[C@@H](C)[C@H]1CC[C@H]2[C@@H]3[C@H](O)C[C@@H]4C[C@H](O)CC[C@]4(C)[C@H]3C[C@H](O)[C@]12C)C(C)C)C(=O)O
B9: CA-LVF-oh (peptide)
peptide: Cholyl-Leu-Val-Phe-OH
SMILES: CC(C)C[C@H](NC(=O)CC[C@@H](C)[C@H]1CC[C@H]2[C@@H]3[C@H](O)C[C@@H]4C[C@H](O)CC[C@]4(C)[C@H]3C[C@H](O)[C@]12C)C(=O)N[C@H](C(=O)N[C@@H](Cc1ccccc1)C(=O)O)C(C)C
B10: h-DDIIL-(Adp)-VFF-oh (peptide)
peptide: H-DDIIL[Adp]VFF-OH
SMILES: CC[C@H](C)[C@H](NC(=O)[C@H](CC(=O)O)NC(=O)[C@@H](N)CC(=O)O)C(=O)N[C@H](C(=O)N[C@@H](CC(C)C)C(=O)NCCc1cccc2c1oc1c(CCC(=O)N[C@H](C(=O)N[C@@H](Cc3ccccc3)C(=O)N[C@@H](Cc3ccccc3)C(=O)O)C(C)C)cccc12)[C@@H](C)CC
B11: CA-VFF-oh (peptide)
peptide: Cholyl-Val-Phe-Phe-OH
SMILES: CC(C)[C@H](NC(=O)CC[C@@H](C)[C@H]1CC[C@H]2[C@@H]3[C@H](O)C[C@@H]4C[C@H](O)CC[C@]4(C)[C@H]3C[C@H](O)[C@]12C)C(=O)N[C@@H](Cc1ccccc1)C(=O)N[C@@H](Cc1ccccc1)C(=O)O
B12: CA-LVFFAE-oh (peptide)
peptide: Cholyl-LVFFAE-OH
SMILES: CC(C)C[C@H](NC(=O)CC[C@@H](C)[C@H]1CC[C@H]2[C@@H]3[C@H](O)C[C@@H]4C[C@H](O)CC[C@]4(C)[C@H]3C[C@H](O)[C@]12C)C(=O)N[C@H](C(=O)N[C@@H](Cc1ccccc1)C(=O)N[C@@H](Cc1ccccc1)C(=O)N[C@@H](C)C(=O)N[C@@H](CCC(=O)O)C(=O)O)C(C)C
B13: CA-LVFFK-oh (peptide)
peptide: Cholyl-LVFFK-OH
SMILES: CC(C)C[C@H](NC(=O)CC[C@@H](C)[C@H]1CC[C@H]2[C@@H]3[C@H](O)C[C@@H]4C[C@H](O)CC[C@]4(C)[C@H]3C[C@H](O)[C@]12C)C(=O)N[C@H](C(=O)N[C@@H](Cc1ccccc1)C(=O)N[C@@H](Cc1ccccc1)C(=O)N[C@@H](CCCCN)C(=O)O)C(C)C
B14: CA-LAFFA-oh (peptide)
peptide: Cholyl-LAFFA-OH
SMILES: CC(C)C[C@H](NC(=O)CC[C@@H](C)[C@H]1CC[C@H]2[C@@H]3[C@H](O)C[C@@H]4C[C@H](O)CC[C@]4(C)[C@H]3C[C@H](O)[C@]12C)C(=O)N[C@@H](C)C(=O)N[C@@H](Cc1ccccc1)C(=O)N[C@@H](Cc1ccccc1)C(=O)N[C@@H](C)C(=O)O
B15: CA-VFFA-oh (peptide)
peptide: Cholyl-VFFA-OH
SMILES: CC(C)[C@H](NC(=O)CC[C@@H](C)[C@H]1CC[C@H]2[C@@H]3[C@H](O)C[C@@H]4C[C@H](O)CC[C@]4(C)[C@H]3C[C@H](O)[C@]12C)C(=O)N[C@@H](Cc1ccccc1)C(=O)N[C@@H](Cc1ccccc1)C(=O)N[C@@H](C)C(=O)O

Target: natural β-amyloid peptide β-AP1-40 (human)
Sequence (peptide, as listed by the source): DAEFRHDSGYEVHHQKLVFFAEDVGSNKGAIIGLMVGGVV
Test: cell-based or functional assay

In order of falling “% Inucl'n; nucleation assay; 100 mole %” value:
1. Cholyl-LV[Tyr(3-I)]FA-OH [CA-LV(IY)FA-oh]  100%
2. B5  100%
3. B4  76%
4. B15  76%
5. B1  68%
6. B11  55%
7. B12  55%
8. B6  51%
9. B14  47%
10. H-LVFFA[Aic″]-OH [h-LVFFA-(Aic)-oh]  46%
11. B8  45%
12. B7  25%
13. B3  18%
14. {NANA}-KLVFF-OH [NANA-KLVFF-oh]  16%
15. H-LVFFA-OH [h-LVFFA-oh]  15%
16. B10  14%
17. H-LVFFA-NH2 [h-LVFFA-nh2]  11%
18. B9  1%
19. H-KLVFF-NH2 [h-KLVFF-nh2]  -9%
20. {NANA}-HQKLVFF-NH2 [NANA-HQKLVFF-nh2]  -15%
21. Cholyl-LVFFA-NH2 [CA-LVFFA-nh2]  -200%

Going from {NANA}-HQKLVFF-NH2 [NANA-HQKLVFF-nh2] to B1, the “ΔLag; nucleation assay; 100 mole %” value falls from 1.5 ratio to 1.4 ratio.

Going from B3 to Cholyl-LV[Tyr(3-I)]FA-OH [CA-LV(IY)FA-oh], the “ΔLag; nucleation assay; 100 mole %” value rises from 1.2 ratio to over 5 ratio.

Going from H-LVFFA-NH2 [h-LVFFA-nh2] to H-LVFFA[Aic″]-OH [h-LVFFA-(Aic)-oh], the “ΔLag; nucleation assay; 100 mole %” value rises from 1.3 ratio to 3.5 ratio.

Compared with B4, B5 is higher in “ΔLag; nucleation assay; 100 mole %” value: 2.5 ratio for the first, over 5 ratio for the second.

Going from B6 to B7, the “ΔLag; nucleation assay; 100 mole %” value rises from 1 ratio to 2.7 ratio.

Compared with {NANA}-KLVFF-OH [NANA-KLVFF-oh], B8 is lower in “ΔLag; nucleation assay; 100 mole %” value: 0.9 ratio for the first, 0.8 ratio for the second.

Going from B9 to B10, the “ΔLag; nucleation assay; 100 mole %” value falls from 1.3 ratio to 0.4 ratio.

Compared with B11, H-KLVFF-NH2 [h-KLVFF-nh2] is lower in “ΔLag; nucleation assay; 100 mole %” value: 1.8 ratio for the first, 1.3 ratio for the second.

Going from H-LVFFA-OH [h-LVFFA-oh] to B12, the “ΔLag; nucleation assay; 100 mole %” value rises from 1 ratio to 1.4 ratio.

Compared with B14, B15 is higher in “ΔLag; nucleation assay; 100 mole %” value: 1.5 ratio for the first, 2 ratio for the second.

With Cholyl-LVFFA-NH2 [CA-LVFFA-nh2] the “ΔLag; nucleation assay; 100 mole %” value was 1 ratio.

In order of rising “% Iext'n; seeded extension assay; 25 mole %” value:
1. B7  0%
2. B9  0%
3. B10  0%
4. Cholyl-LVFFA-OMe [CA-LVFFA-o-methyl]  0%
5. B11  0%
6. H-LVFFA[Aic″]-OH [h-LVFFA-(Aic)-oh]  3%
7. B6  6%
8. {NANA}-KLVFF-OH [NANA-KLVFF-oh]  8%
9. B15  10%
10. H-LVFFA-OH [h-LVFFA-oh]  11%
11. B12  16%
12. B3  21%
13. B8  37%
14. H-KLVFF-NH2 [h-KLVFF-nh2]  39%
15. B1  44%
16. Cholyl-LVFF-OH [CA-LVFF-oh]  51%
17. B14  66%
18. H-LVFFA-NH2 [h-LVFFA-nh2]  70%
19. Cholyl-LV[Tyr(3-I)]FA-OH [CA-LV(IY)FA-oh]  71%
20. B4  80%
21. B13  85%
22. B2  87%
23. B5  89%
24. Cholyl-LVFFA-NH2 [CA-LVFFA-nh2]  91%

In order of falling “% Inucl'n; nucleation assay; 33 mole %” value:
1. B2  100%
2. B13  100%
3. Cholyl-LVFF-OH [CA-LVFF-oh]  72%
4. Cholyl-HQKLVFF-NH2 [CA-HQKLVFF-nh2]  5%

Going from B2 to Cholyl-LVFF-OH [CA-LVFF-oh], the “ΔLag; nucleation assay; 33 mole %” value falls from over 5 ratio to 1.8 ratio.

Going from Cholyl-HQKLVFF-NH2 [CA-HQKLVFF-nh2] to B13, the “ΔLag; nucleation assay; 33 mole %” value rises from 1.1 ratio to over 5 ratio.
